B1: tetranectin (protein, UniProt P05452 22-202, looked up)
Tetranectin: EPPTQKPKKIVNAKKDVVNTKMFEELKSRLDTLAQEVALLKEQQALQTVCLKGTKVHMKCFLAFTQTKTFHEASEDCISRGGTLGTPQTGSENDALYEYLRQSVGNEAEIWLGLNDMAAEGTWVDMTGARIAYKNWETEITAQPDGGKTENCAVLSGAANGKWFDKRCRDQLPYICQFGIV

Legend:
[1] = system: Murine macrophage-like RAW 264.7 cells; assay: Cellular HMGB1 and TN uptake; type: cell-based, mouse; conditions: 2 h
Method: Highly purified recombinant HMGB1 and TN protein were labeled with either Alexa Fluor 555 or Alexa Fluor 488 using respective labeling kit (Cat. # A30007 or Cat. # A30006, Thermo Fisher Scientific) according to the manufacturer's instructions. Murine macrophage-like RAW 264.7 cells on cover slips were incubated with unlabeled or Alexa Fluor 555-labeled HMGB1 in the absence or presence of unlabeled or Alexa Fluor 488-labeled TN at 37° C. for 2 h. An endocytosis inhibitor, Dynasore (8.0 μM), or mAb8 (60 μg/ml) were added 30 min before the addition of HMGB1 or TN. Following extensive washings with 1×PBS, cells were fixed with 4% formalin for 20 min at room temperature and mounted on the slide using Vectashield Mounting Medium for Fluorescence with DAPI (Vector Laboratories, Inc., Cat. # H-1200) for nuclei staining (blue). Endocytic uptake of Alexa Fluor 555-labeled HMGB1 (red) or Alexa Fluor 488-labeled TN (green) was visualized via Carl Zeiss fluorescence microscope. To quantitate cellular uptake of HMGB1 and TN, macrophage cultures were incubated with recombinant HMGB1 and TN either individually, or in combination, at 37° C. for 2 h. Following extensive washing, cellular levels of HMGB1 and TN were measured by Western blotting analysis with reference to a house-keeping protein, β-actin.

[2] = system: differentiated human macrophages; assay: TN/HMGB1-induced formation of ASC foci/speck; type: cell-based; conditions: dynasore 20.0 μM, 16 h
Method: (§1) FIG. 12(A)-12(C): TN and HMGB1 cooperate to induce macrophage cell death. 12(A) Thioglycolate-elicited murine peritoneal macrophages were treated with TN (10 μg/ml) in the absence or presence of HMGB1 (0.5 μg/ml), TN-specific mAb8 (65.0 μg/ml), or dynasore (10.0 μM) for 16 h, and cell viability was assessed by trypan blue dye exclusion or LDH release assay. *, P<0.05 versus negative control; #, P<0.05 versus “+TN” or “+HMGB1” alone; &, P<0.05 versus positive control “+TN+HMGB1” group, n=6-10 per group. 12(B) Murine peritoneal macrophages were stimulated with TN (10 μg/ml) in the absence or presence of HMGB1 (1.0 μg/ml) for 16 h, and the cell-conditioned medium was assayed for ASC release by Western blotting analysis. SDS-PAGE gel indicated equivalent sampling loading. Bar graph represented average of three samples (n=3) from two independent experiments (N=2). *, P<0.05 versus negative controls (“−HMGB1−TN”); #, P<0.05 versus positive control (“+HMGB1” or “+TN” alone). 12(C) Differentiated human macrophages were stimulated with HMGB1 (1.0 μg/ml) and TN (10.0 μg/ml) in the absence or presence of TN-specific mAb (40 μg/ml) or dynasore (20.0 μM) for 16 h. Subsequently, cells were immunostained with Alexa Fluor 594-conjugated anti-ASC IgGs. Scale bars: 10 μm. Narrow arrows point to minute ASC puncta; Wide arrow points to a larger ASC speck. […]

[3] = system: murine peritoneal macrophages; assay: TN/HMGB1-induced macrophage cell death (trypan blue, LDH release); type: cell-based, mouse; conditions: dynasore 10.0 μM, 16 h
Method: as §1

HMGB1 = target: T1, HMGB1 (Rattus norvegicus, UniProt P63159); assay: OpenSPR assay of TN/HMGB1 interaction; type: binding; conditions: TN or HMGB1 conjugated to the sensor chip
T1 construct: made in house; host or cells: E. coli BL21 (DE3) pLysS
T1 sequence (P63159 1-215): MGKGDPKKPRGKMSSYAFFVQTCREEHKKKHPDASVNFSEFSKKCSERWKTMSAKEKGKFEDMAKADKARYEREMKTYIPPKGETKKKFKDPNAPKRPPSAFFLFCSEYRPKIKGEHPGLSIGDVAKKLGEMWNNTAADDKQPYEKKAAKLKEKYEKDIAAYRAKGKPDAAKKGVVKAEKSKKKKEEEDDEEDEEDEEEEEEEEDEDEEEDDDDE
Text: The cDNA encoding for rat HMGB1 was cloned onto a pCAL-n vector, and the recombinant CBP-HMGB1 (rHMGB1) was expressed in E. coli BL21 (DE3) pLysS cells as previously described. Recombinant HMGB1 containing a ˜3 kDa calmodulin-binding peptide tag (CBP-HMGB1 fusion protein, 33 kDa) was expressed in E. coli, and purified to remove contaminating endotoxin by Triton X-114 extraction as previously described. Recombinant human TN corresponding to residue 22-202 amino acid (without the 21-amino acid leader signal sequence) with a C-terminal histidine tag were expressed in E. coli BL21 (DE3) pLysS cells and purified by histidine-affinity and Triton X-114 extraction to remove contaminating endotoxins. Recombinant TN and HMGB1 proteins were tested for LPS content by the chromogenic Limulus amebocyte lysate assay (Endochrome; Charles River), and the endotoxin content was less than 0.01 U per microgram of recombinant proteins.
We employed the Nicoya Lifesciences gold-nanoparticle-based Open Surface Plasmon Resonance (OpenSPR) technology (Kitchener, ON, Canada) to characterize protein-protein interactions following the manufacturer's instructions. […] The response units were recorded over time, and the binding affinity was estimated as the equilibrium dissociation constant KD using the Trace Drawer Kinetic Data Analysis v.1.6.1. […]

human blood monocytes = assay: LPS- or SAA-induced HMGB1 release in human monocytes; type: cell-based; conditions: 16 h
Method: (§2) Primary peritoneal macrophages were isolated from young male Balb/c (7-8 wks, 20-25 g) at 3 days after intraperitoneal injection of 2 ml thioglycollate broth (4%) as previously described. Briefly, mice were sacrificed by CO2 asphyxiation, and the abdomen region was immediately cleaned with 70% ethanol before making a small excision to expose the abdominal wall, and to insert a catheter into viscera-free pocket to wash out peritoneal macrophages with sucrose solution (11.6%, 7.0 ml). […] The intracellular and extracellular levels of HMGB1, TN, or various other cytokines/chemokines were respectively determined by Western blotting analysis, and Cytokine Antibody Arrays as previous described.
(§3) The levels of TN in human or murine serum were determined by Western blotting analysis using commercial rabbit mAb against the C-terminus of human TN (Abcam) or our home-made murine mAbs (mAb8) against recombinant human TN. Similarly, the cellular and extracellular levels of TN and HMGB1 in murine macrophage and human monocyte cultures were determined by Western blotting analysis using rabbit polyclonal or monoclonal antibodies. […] The relative band intensity was quantified using the UN-SCAN-IT Gel Analysis Software Version 7.1 (Silk Scientific Inc., Orem, UT, USA).

[4] = system: Balb/C mice subjected to CLP sepsis; assay: Sepsis-induced tissue injury (lung histology, serum liver enzymes) after CLP; type: in vivo, mouse; conditions: TN supplementation, 2 and 24 h post CLP
primary human monocytes = assay: Cytokine Antibody Array of human monocyte cultures; type: cell-based; conditions: TN 10 μg/ml, 16 h
Method: (§4) Primary peritoneal macrophages were isolated from young male Balb/c (7-8 wks, 20-25 g) at 3 days after intraperitoneal injection of 2 ml thioglycollate broth (4%) as previously described. Briefly, mice were sacrificed by CO2 asphyxiation, and the abdomen region was immediately cleaned with 70% ethanol before making a small excision to expose the abdominal wall, and to insert a catheter into viscera-free pocket to wash out peritoneal macrophages with sucrose solution (11.6%, 7.0 ml). Human blood was purchased from the New York Blood Center (Long Island City, NY, USA), and human peripheral blood mononuclear cells (HuPBMCs) were isolated by density gradient centrifugation through Ficoll (Ficoll-Paque PLUS, Pharmacia, Piscataway, NJ, USA) as previously described. Murine macrophages and human monocytes (HuBPMCs) were cultured in DMEM supplemented with 1% penicillin/streptomycin and 10% FBS or 10% human serum. When reaching 70-80% confluence, adherent cells were gently washed with, and immediately cultured in, OPTI-MEM I before stimulating with crude LPS, purified SAA, HMGB1, in the absence or presence of human TN. The intracellular and extracellular levels of HMGB1, TN, or various other cytokines/chemokines were respectively determined by Western blotting analysis, and Cytokine Antibody Arrays as previous described. […]

[5] = system: murine peritoneal macrophages; assay: LPS- or SAA-induced HMGB1 release in murine macrophages; type: cell-based, mouse; conditions: 16 h
Method: as §2, §3

macrophage cultures = assay: Cytokine Antibody Array of macrophage cultures; type: cell-based, mouse; conditions: even at 20 μg/ml
Method: as §4

[6] = system: murine peritoneal macrophages; assay: ASC release in macrophage cultures (Western blotting); type: cell-based, mouse; conditions: 16 h
Method: as §2, §3

[7] = Dynasore 8.0 μM or mAb8 60 μg/ml

Row | estimated equilibrium disassociation constant (KD) between TN and HMGB1 (HMGB1) [nM] | Molecule | HMGB1-enhanced cellular uptake of TN [1, 7] | TN-mediated enhancement of cellular HMGB1 uptake [1, 7] | TN/HMGB1 induced ASC aggregation [2] | TN/HMGB1 induced cell death [3] | LPS- and SAA-induced HMGB1 release (human blood monocytes) | HMGB1 cellular uptake ([1]; TN at physiological concentrations) | sepsis-induced injury in the liver ([4]; ALT and AST at 28 h) | sepsis-induced injury in the lung ([4]; analysis at 28 h) | release of ENA-78 (CXCL5, LIX) (primary human monocytes) | release of GRO (CXCL1 or KC) (primary human monocytes) | LPS- and SAA-induced HMGB1 release [5] | LPS-, SAA-, or HMGB1-induced release of other cytokines and chemokines (macrophage cultures) | ASC release, added individually [6] | ASC release, co-addition with HMGB1 [6]
1 | – | O=C(N/N=C/c1ccc(O)c(O)c1)c1cc2ccccc2cc1O [dynasore] | similarly attenuated | prevented | inhibit | inhibit | – | – | – | – | – | – | – | – | – | –
2 | 1.21 to 2.88 | B1 | – | – | – | – | dose-dependently inhibited | markedly enhanced | marked attenuation | marked attenuation | reproducibly and specifically induced the release | reproducibly and specifically induced the release | dose-dependently inhibited | did not inhibit | weakly induced | synergistic enhancement
